Assay: soluble on expression in E. coli; label from the status in PepcDB or PDB records

| Sequence | soluble on expression in E. coli |
| --- | --- |
| MVKSAVLGFPRIGKNRELKKATEAYWSGKTSAEELLATAKQLRLEHWKLQKAQGVDIIPSNDFSLYDQIMDHSFSFNVIPPRYRLSGLSSLDTYFAMGRGMQRAATADKAAVDVPAGEMVKWFDSNYHFLRPEVSEETDFKLSSTKALDEFLEAKEAGIITRPVLVGPVTYLFIAKAAKGSSIKPIELLPKLLPVYVELIKKLTEAGAEYIQIDEPILTLDLPQEILASYKEAYETLGKIGKLILTTYFGSLQSNADVLKGLPIAGVHVDVVRAPENLDRALAVLGENQIISVGVVSGRNIWKTDFQKATAIIEKAISAVGSERVQVASSSSILHIPHSLSGEDQINPEIKRWFAFAVEKCAELAILTKAANDGPASVRAELEANAADCKARAESPITNVEAVRERQSKVTPQMHERKSPFETRYAKQQASLKLPLFPTTTIGSFPQTKEIRVTRNRFAKGLISQEEYDAFIRKEISDVVKFQEEVGLDVLVHGEPERNDMVQYFGERMEGFVFTVNGWVQSYGSRCVRPPIIVGDVYRPAPMTVKESQYAQSITSKPMKGMLTAPITILRWSFPRDDVHDSVQAQQIALGLRDEVLDLEKAGIKVIQCDEPALREGLPLRRAEWDEYLKWAIDAFRLATAAVQDDTQIHSHFCYSDFNDIFDAIQRLDADVVSIENSKSDMKLLNVLSRYTSCIGPGLFDIHSPRVPPVSEFKERIDAIVKHVPKDHLWLNPDCGLKTRGWPETTADLKNMIAAAREAREQYA | soluble |
| GSMAGWQSYVDNLMCDGCCQEAAIVGYCDAKYVWAATAGGVFQSITPAEIDVIIGKDREGFFTNGLTLGGKKCSVIRDSLYVDSDCTMDIRTKSQGGEPTYNVAVGRAGRVLVFVMGKEGVHGGGLNKKAYSMAKYLRDSGF | soluble |
| MAGDYSYDAVKREYVIGSDMTSYAHEVFAAAKPMDIRHNDLPQPDSVIDVTVSTTEWPEGDSNYPINPKLVFTNHSNVAIPGGSTIEFLMPTSSGDIVKDWSGAGLKVIESGHTGSNFSVNGEKKLFHKVAVTLRSTETIPAGGEYSVDMVYYTPVSGVANGVRFIVGNETVGLKKDFPTLPALEHHHHHH | soluble |
| MMNALELQALRRIFDMTIEECTIYITQDNNSATWQRWEAGDIPISPEIIARLKEMKARRQRRINAIVDKINNRIGNNTMRYFPDLSSFQSIYTEGDFIEWKIYQSVAAELFAHDLERLC | soluble |
| MGSDKIHHHHHHMTNSIMALPSSIRHYRRKQMAINQVAQTPAISPLTIKERTGSISTAEMISVLKGETTALHIKQAFSTEVAEEITTNFLGSPGLKERKDGVPGQYVGASHYRKDAATYFAESETARPHVDALFENLVDPVRGSFDALKRELHKQGIELRLARSEHGHANVCRALSWSGSGTFSLDPHDDVAQVLSAGNDYELSAVAHNTVAALNFYPSMPEEGGNLRLWSHKPTVADRKSQGVETTGYPYSSAYLEAVPCREFQLKPGDIALIDGGFVHGVTGQSGNGKRRLVLNSFFGFARPDLVLWWT | not soluble |
| MTSSFLYVLFTVSCLAALVSISEACFASGICGGGCPPPPPPMCSGGCGGGYSCGSYGCYRARARGSKTLSFKKPSEMNPDERFMKCCEDRNLPDSCLSKCSYRSYTKSALQSMYFKQDSCPMQAAADIQFCAAQGKDHTACCARNAVGTTLAGNKCFTFCDQRPGNVTQLDMSYLACYDRFENMKACFYQKASEASDPIVSFSNDRDNNREFAVDTETAEFRRPSQEHFRAPTSPQLPQNPLFAVQNLLARTFGQ | not soluble |
| HHQELCTKGDDALVTELECIRLRISPETNAAFDNAVQQLNCLNRACAYRKMCATNNLEQAMSVYFTNEQIKEIHDAATACDPEAHHEHDH | soluble |
| MGSDKIHHHHHHMIDHLIATDIGGRGSEKLYILYKSKDPDYFSKSLDLLIKSDEVLIVSDFPIPPTMTPETDGPPGALALALGLAELGKKATILTQEIVKEGLRDFYPRITTKFPNIRKFSCLVSIETPGRNFKGEYLSFSGLKISVRPYDDLFLRALELGIPTIGIGDGGNEIGMGNLGLNDERFSVVRVNELIIAGVSNWGAYGLVAGLSMRVGQNLLRDYNEEDVVKSLVDVGLIDGITKKREPTVDGLPLSLHGKILELLIEIVNIKTP | not soluble |

From the DeepSol protein solubility set
